Laboratory results taken from paper PMC5262459.

Molecular target: nucleosome with full-length recombinant Xenopus laevis histones acetylated by the lysine acetyltrans (X. laevis) (UniProt P62799)
Assay: single-particle negative-staining TEM in a DNA origami force spectrometer

Substance: nucleosome with full-length recombinant Xenopus laevis histones acetylated by the lysine acetyltrans (from UniProt P62799 1-103) (complex)
- depth of the minimum of the nucleosome pair potential: -0.6 kcal/mol
